Experimental data: patent publication EP4582447A1 (Quaerite Biopharm Research (Beijing) Co., Ltd., dated 2025)
Read-outs that look alike come from different tables or passages of the source.

T1: human VEGFA121 (human, UniProt P15692-9 27-147)
T1 sequence (looked up): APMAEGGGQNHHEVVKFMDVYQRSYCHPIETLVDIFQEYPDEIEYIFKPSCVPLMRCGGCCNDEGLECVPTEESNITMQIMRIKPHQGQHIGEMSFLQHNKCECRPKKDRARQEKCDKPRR


Legend:
Human VEGFA165 [1] = biological target: T2, Human VEGFA165 (human, UniProt P15692-4 27-191); test: SPR, VEGFA165 on CM5
T2 construct: treated as the same molecule; also called antigen VEGFA

Human VEGFA165 [2] = biological target: T2, Human VEGFA165; test: cell-based or functional assay
Target sequence in this assay (P15692 other isoform, or with tags, fused parts or gaps limits assumed): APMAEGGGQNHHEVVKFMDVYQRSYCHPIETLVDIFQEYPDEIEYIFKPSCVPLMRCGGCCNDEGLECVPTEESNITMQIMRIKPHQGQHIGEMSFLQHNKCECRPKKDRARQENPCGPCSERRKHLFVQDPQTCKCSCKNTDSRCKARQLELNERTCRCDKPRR

Human VEGFA165 [3] = biological target: T2, Human VEGFA165; test: ELISA, VEGFA coated 0.3 µg/mL, anti-His detection
Target sequence in this assay (P15692 other isoform, or with tags, fused parts or gaps limits assumed): as above

Human VEGFA165 [4] = biological target: T2, Human VEGFA165; test: phage ELISA, VEGFA coated 0.5 µg/mL, anti-M13(HRP)
Target sequence in this assay (P15692 other isoform, or with tags, fused parts or gaps limits assumed): as above

human VEGFA121 = biological target: T1, human VEGFA121; test: ELISA, human VEGFA121 coated 0.3 µg/mL, anti-His detection
[5] = biological target: 3% milk powder (negative control); test: phage ELISA, 3% milk powder coated (negative control), anti-M13(HRP)
Human VEGFA165 [6] = biological target: T2, Human VEGFA165; test: competition ELISA on coated VEGFA, competitor VEGFR2-ECD-Fc 1 nM
Target sequence in this assay (P15692 other isoform, or with tags, fused parts or gaps limits assumed): as above

Human VEGFA165 [7] = biological target: T2, Human VEGFA165; test: competition ELISA on coated VEGFA, competitor VEGFR2-ECD-Fc 2 nM
Target sequence in this assay (P15692 other isoform, or with tags, fused parts or gaps limits assumed): as above

Human VEGFA165 [8] = biological target: T2, Human VEGFA165; test: SPR Biacore 8K, VEGFA165 amine-coupled on CM5, nanobody as analyte, 1:1 model
Human VEGFA165 [9] = biological target: T2, Human VEGFA165; test: as above; remark: listed apart in the source
Target sequence in this assay (P15692 other isoform, or with tags, fused parts or gaps limits assumed): as above

Human VEGFA165 [10] = biological target: T2, Human VEGFA165; test: phage ELISA, VEGFA coated 0.5 µg/mL, anti-M13(HRP)
Human VEGFA165 [11] = biological target: T2, Human VEGFA165; test: SPR Biacore 8K, V1-SA1 amine-coupled on CM5, VEGFA165 as analyte, two state reaction model
Human VEGFA165 [12] = biological target: T2, Human VEGFA165; test: SPR Biacore 8K, V1-SA1 amine-coupled on CM5, VEGFA165 as analyte, two state reaction model (ka1)
Human VEGFA165 [13] = biological target: T2, Human VEGFA165; test: SPR Biacore 8K, V1-SA1 amine-coupled on CM5, VEGFA165 as analyte, two state reaction model (kd1)
Human VEGFA165 [14] = biological target: T2, Human VEGFA165; test: ELISA, VEGFA coated 0.3 µg/mL, anti-His detection; remark: listed apart in the source

Row | Binder | fold difference of KD from the positive control BI-VEGF ab (Human VEGFA165 [1]) | IC50 (pM), inhibition of VEGFA-stimulated HUVEC proliferation (CCK-8) (Human VEGFA165 [2]) | Maximum inhibition rate (%) of HUVEC proliferation (Human VEGFA165 [2]) | OD450 (Human VEGFA165 [4]) | OD450 [5] | IC50 (Human VEGFA165 [6]) | Maximum inhibition rate (%) (Human VEGFA165 [6]) | IC50 (Human VEGFA165 [7]) | Maximum inhibition rate (%) (Human VEGFA165 [7]) | Kd (Human VEGFA165 [8]) | koff (Human VEGFA165 [8]) | kon (Human VEGFA165 [8]) | further results
1 | V1 (VHH, also called candidate antibody V1; antibody V1) VHH: QLQLVESGGGSVQPGGSLRLSCEVSGRTFSSYTMGWFRQAPGKEREFVVAISKGGYKYDSVSLEARFTISKDNTKNTVYLQMNSLKPEDTAVYYCAATRAYGSSRLRLADTYEYWGQGTQVTVSS | < 3 fold | 2690 pM | 103% | 2.31 OD450 | 0.0377 OD450 | 5.59 nM | 90.5% | 26.4 nM | 95% | 0.247 nM | 0.000101 s⁻¹ | 409000 M⁻¹ s⁻¹ | EC50 (Human VEGFA165 [3]): 0.53 nM; EC50 (human VEGFA121): 1.27 nM; Kd (Human VEGFA165 [9]): 0.247 nM; koff (Human VEGFA165 [9]): 0.000101 s⁻¹; kon (Human VEGFA165 [9]): 409000 M⁻¹ s⁻¹
2 | V14 (VHH, Purified with C-terminal GGGGS-6×His) VHH: QLQLVESGGGSVQPGGSLRLSCEVSGRTFTSYTMGWFRQAPGKEREFVVAISKGGYKYNTVSLEARFTISKDNTKNTVYLQMNSLKPEDTAVYYCAGTRAYGSSRLRLANTYEYWGQGTQVTVSS |  |  |  | 2.03 OD450 | 0.0252 OD450 | 4.58 nM | 94.9% |  |  |  |  |  | 
3 | V21 (VHH, Purified with C-terminal GGGGS-6×His) VHH: QLQLVESGGGSVQPGGSLRLSCEVSGRTFTSYTMGWFRQAPGKEREFVVAISKGGYKYNTVSLEARFTISKDNTKNTVYLQMNSLKPEDTAVYYCAGTRAYGSSRLRLAETYEYWGQGTQVTVSS |  |  |  | 2.15 OD450 | 0.0186 OD450 | 4.62 nM | 88.3% |  |  |  |  |  | 
4 | V25 (VHH) VHH: QLQLVESGGGSVQPGGSLRLSCEVSGRTFTSYTMGWFRRAPGKEREFVVAISKGGYKYDSVSLEARFTISKDNTKNTVYLQMNSLKPEDTAVYYCAGTRAYGSSRLKLAKTYEYWGQGTQVTVSS |  |  |  |  | 0.0354 OD450 |  |  |  |  |  |  |  | OD450 (Human VEGFA165 [10]): 1.29 OD450
5 | V15 (VHH, Purified with C-terminal GGGGS-6×His; also called candidate antibody V15) VHH: QLQLVESGGGSVQPGGSLRLSCEVSGRTFASYTMGWFRQAPGKEREFVVAISKGGYKYDSVSLEARFTISKDNTKNTVYLQMNSLKPEDTAVYYCAGTRAYGSSRLRLAETYEYWGQGTQVTVSS | < 3 fold | 7120 pM | 84.2% | 1.87 OD450 | 0.0126 OD450 | 3.89 nM | 94.6% | 29.3 nM | 71.6% | 0.277 nM | 9.61e-05 s⁻¹ | 347000 M⁻¹ s⁻¹ | EC50 (Human VEGFA165 [3]): 0.89 nM
6 | V13 (VHH, Purified with C-terminal GGGGS-6×His; also called candidate antibody V13) VHH: QLQLVESGGGSVQPGGSLRLSCEVSGRTFTSYTMGWFRQAPGKEREFVVAISKGGYKYDAVSLEARFTISKDNTKNTVYLQMNSLKPEDTAVYYCAGTRAYGSSRLRLADTYEYWGQGTQVTVSS | < 3 fold | 3940 pM | 94.7% | 2.14 OD450 | 0.0144 OD450 |  |  |  |  | 0.224 nM | 8.65e-05 s⁻¹ | 386000 M⁻¹ s⁻¹ | 
7 | V17 (VHH, Purified with C-terminal GGGGS-6×His) VHH: QLQLVESGGGSVQPGGSLRLSCEVSGRTFSSYTMGWFRQAPGKEREFVVAISKGGYKYDTVSLEARFTISKDNTKNTVYLQMNSLKPEDTAVYYCAATRAYGSSRLRLAKTYEYWGQGTQVTVSS |  |  |  | 3.47 OD450 | 0.0403 OD450 | 16.3 nM | 80.4% |  |  |  |  |  | 
8 | V1-SA1 (VHH, Humanized V1; also called humanized antibody V1-SA1; monovalent nanobody V1-SA1) VHH: EVQLVESGGGLVQPGGSLRLSCAVSGRTFSSYTMGWFRQAPGKEREFVVAISKGGYKYDSVSLEARFTISRDNAKNTVYLQMNSLRPEDTAVYYCAATRAYGSSRLRLADTYEYWGQGTLVTVSS |  |  |  |  |  |  |  | 22.5 nM | 94.6% |  |  |  | Kd (Human VEGFA165 [11]): 4.38 nM; kon (Human VEGFA165 [12]): 1.06e+06 M⁻¹ s⁻¹; koff (Human VEGFA165 [13]): 0.0598 s⁻¹
9 | linear tandem bivalent nanobody 2V15-9GS (VHH, no further tag added here) QLQLVESGGGSVQPGGSLRLSCEVSGRTFASYTMGWFRQAPGKEREFVVAISKGGYKYDSVSLEARFTISKDNTKNTVYLQMNSLKPEDTAVYYCAGTRAYGSSRLRLAETYEYWGQGTQVTVSSGGGGSGGGSQLQLVESGGGSVQPGGSLRLSCEVSGRTFASYTMGWFRQAPGKEREFVVAISKGGYKYDSVSLEARFTISKDNTKNTVYLQMNSLKPEDTAVYYCAGTRAYGSSRLRLAETYEYWGQGTQVTVSS |  |  |  |  |  |  |  |  |  |  |  |  | EC50 (Human VEGFA165 [14]): 0.25 nM
